Test results reported in the nanobody polyreactivity screen of Harvey et al. (2022).

Test: yeast display, Sf9 membrane polyspecificity reagent, FACS + sequencing; frameworks hold sequencing errors
Outline: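 A nanobody's polyreactivity label depends on the gate it was sorted from. Yeast display cells were stained with 10% biotinylated, detergent-solubilized Sf9 membrane reagent for 1 hour at 4 °C, enriched on streptavidin microbeads and sorted by FACS. The low and high (top ~1%) gates were set on anti-HA fluorescence for expression and streptavidin fluorescence for reagent binding.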

Sequence | polyreactivity (PSR sort gate)
QVQLVESGGGLVQAGGSLRLSCAASGRTIGYYAMGWYRQAPGKERELDAAITRSGGSTYYADSVKGRFTISRDNAKNTVYLQMKSLKPEDTAVYYCATYSVSGKPLGYWGHGTQVTVSS | low polyreactivity
QVQLVESGGGLVQAGGSLRLSCAASGRTIKVYAMGWYRQAPGKERELVAAISYSGAGTRYADSVKGRFTISRDNAKNTVYLQMNSLKPEDTAVYYCNTDAWARVKRYEYWGQGTQVTVSS | low polyreactivity
QVQLVESGGGLVQAGGSLRLSCAASGRTILLNDMGWYRQAPGKERELVAGITRSGGSTYYADSVKGRFTISRDNAKNTVYLQMNSLKPEDNAVYYCAADFKPLYYDEYDYWGQGTQVTVSS | low polyreactivity
QVQLVESGGGLVQAGGSLRLSCAASGRTINRYAMGWYRQAPGKERELVAVITSDGRTNYADSVKGRFTISRDNAKNTVYLQMNSLKPEDTAVYYCNKRSALSFVYDFDYWGQGTQVTVSS | low polyreactivity
QVQLVESGGGLVQAGGSLRLSCAASGRTIPAYTMGWYRQAPGKERELVAAINWSGGSTYYADSVKARFTISRDNAKNCVYLQMISLNPEDTAVYYCARTSRYYGFRSYGTLDYWGQGTQVTVSS | high polyreactivity
QVQLVESGGGLVQAGGSLRLSCAASGRTIPWNVMGWYRQAPGKERELVATITSRRTSTNYADSVKARFTISRDNAKNTVYLPMNSLKPEDTAVYYCARRTVWGAGHYYYWGQGTQVTVSS | high polyreactivity
QVQLVESGGGLVQAGGSLRLSCAASGRTIRENVMGWYRQAPGKERELVAAITGNDGTTYYADSVKGRFTISRDNAKNTVYLQMNSLKPEDTAVYYCAARPYLGYIGYDYWGQGTQVTVSS | low polyreactivity
QVQLVESGGGLVQAGGSLRLSCAASGRTIRHNAMGWYRQARGKERELVGAISRSGGATYYADSVKGRFTISRDNAKNTVYLQMNSLKPEDTAVYYCAAGYHIIYTPEYYYWGQGTQVTVSS | high polyreactivity
QVQLVESGGGLVQAGGSLRLSCAASGRTIRYYTMGWYRQAPGKEREFVAAISSTGGTYYADSVKGRFTISRDNAKNTVYLQMNSLKPEDTAVYYCAATFIQVVVNVQLYDYDYWGQGTQVTVSS | low polyreactivity
QVQLVESGGGLVQAGGSLRLSCAASGRTISHNAMGWYRQPPGKESELVAAISSGGGSTYYGDSVKGRFTISRDNAKNTVYVQMNSLKPEDTAVYYCAAPSYGRSRGFGLGINKYDYWGQGTQVTVSS | high polyreactivity
QVQLVESGGGLVQAGGSLRLSCAASGRTITRNAMGWYRQAPGKERELVASINRGGITYYADSVKGRFTISRDNAKNTVYLQMNSLKPEDTAVYYCATRPWRSPWGYYDYWGQGTQVTVSS | high polyreactivity
QVQLVESGGGLVQAGGSLRLSCAASGRTITWNAMGWYRQAPGKERELVADITNNGGSTYYADSVKGRFTISRDNAKNTVYLQMNSLKPEDTAVYYCAKRRNYWFSFDYWGQGTQVTVSS | low polyreactivity
QVQLVESGGGLVQAGGSLRLSCAASGRTIWTYVMGWYRQAPGKERELVAAISRSGSSTYYADSVKGRFTISRDNAKNTVYLQMNSLKPEDTAVYYCAASSPWEQSHDQFYYWGQGTQVTVTS | low polyreactivity
QVQLVESGGGLVQAGGSLRLSCAASGRTIWVYTMGWYRQAPGKERELVATINYRGGSTYYADSVKGRFTISRDNAKNTVYLQMNSLKPEDTAVYYCAADYSPPYPRYPYDYWGQGTQVTVSS | high polyreactivity
QVQLVESGGGLVQAGGSLRLSCAASGRTIWYYAMGWYRQAPGKERELVASITRSGGSTYADSVKGRFTISRDNAKNTVDLQMNSLKPEDTAVYYCAATRPRIPVYQNNYGYWGQGSQVTVSS | high polyreactivity
QVQLVESGGGLVQAGGSLRLSCAASGRTIYRYALGWYRQAHGKERELVSRIRSGGSTNYADSVKGRFTISRDNAKNTVYLQMNSLKPEDTAVYYCAARVLDLGKNTYYRYALGYWGQGTQVTVSS | high polyreactivity
QVQLVESGGGLVQAGGSLRLSCAASGRTIYYYAMGWYRQAPGKEREFVAAISWHGGSTYYADSVKGRFTISRDNAKNTVYLQMNSLKPEDTAVYYCAADIYLRGFHYDYWGQGTQVTVSS | low polyreactivity
QVQLVESGGGLVQAGGSLRLSCAASGRTLAGNAMGWYRQAPGQERELVAAISQGGGSTYYADSVKGRFTISRDKAKNTVYLQMNSLKPEDTAGYYCAAEIPRLWASFATLWYDYWGQGTQVTVSS | low polyreactivity
QVQLVESGGGLVQAGGSLRLSCAASGRTLAPYAMGWYRQAPGKARELVADIDRGGGSTYYADSVKGSFTISRDNAKNTVYLQMNSLKPEDTAVYYCNVDEPGVLVAYSLDFWGQGSQVTVSS | low polyreactivity
QVQLVESGGGLVQAGGSLRLSCAASGRTLAPYAMGWYRQAPGKERELVAISTIGGSTYYADSVKGRFTISRDNAKNTVYLQMNSLKPEDTAVYYCAADGNSTGVYLDGGEGFAYDYWGQGTQVTVSS | low polyreactivity
QVQLVESGGGLVQAGGSLRLSCAASGRTLARNAMGWDRQAPGKERELVASINGRTTRTYYADSVKGRFTISRDNAKNTVYLQMNSLKPEDTAVYYCAADPPGYVYGKRYYWGQGTQVTVSS | high polyreactivity
QVQLVESGGGLVQAGGSLRLSCAASGRTLARNAMGWYRQAPGKEREFVASINGRTTRTYYADSVKGRFTISRDNAKNTVYLQMNSLKPEDTAVYYCAADPPGYVYGKRYYWGQGTQVTVSS | high polyreactivity

Sequence | polyreactivity (PSR sort gate)
QVQLVESGGGLVQAGGSLRLSCAASGRTLARNAMGWYRQAPGKERELVASINGRTTRTYYADSVKGRFTISRDNAKNTVYLQMNSLKPADTAVYYCAAAVRYRKYNYWGQGTQVTVSS | high polyreactivity
QVQLVESGGGLVQAGGSLRLSCAASGRTLDKYTLGWYRQAPGKERELVASITSGGSTNYADSVKGRFTISRDNAKNTVYLQMNTLKPEDTAVYYCNKRRRVSKMGQGYDYWGQGTQVTVTS | low polyreactivity
QVQLVESGGGLVQAGGSLRLSCAASGRTLDKYTMGGYRQAPGKERELVASITSGGSTNYADSVKGRFTISRDNAKNTVYLQMNSLKPEDTAVYYCASGNWVLWNPGYDYWGQGTQVTVSS | low polyreactivity
QVQLVESGGGLVQAGGSLRLSCAASGRTLDVNAMGWYRQAPGKEKELVAAIDWGVGTTYYADSVKGRFTISRDNAKNTVYLQMNSLKPEDTAVYYCSVDVYYSVYGYPVQYYYWGQGNQVTVSS | high polyreactivity
QVQLVESGGGLVQAGGSLRLSCAASGRTLFPYAMGWYIQAPGKERELVAAITSRGTSTYYADSVKGRFTISRDIAKNNVYLQMNSLKPEDTAVYYCAKDGWFWGWRFDYCGQGTQVTVSS | low polyreactivity
QVQLVESGGGLVQAGGSLRLSCAASGRTLFYYTMGWYRQAPGKERELVAAITTGGRTYYADSVKGRFTISRDNAKNTVYLQMNSLKPEDTAVYYCAAHTYYYPVGFNYWGQGTQVTVSS | low polyreactivity
QVQLVESGGGLVQAGGSLRLSCAASGRTLFYYTMGWYRQAPGKVRELVAAITTGGRTYYADSVKGRFTISRDNAKNTVYLQMNSLNPEDTAVYYCAAHTYYYPVGFNYWGPGTQVTVSS | low polyreactivity
QVQLVESGGGLVQAGGSLRLSCAASGRTLGANAMGWYRQAPGKERELVAAITDSGGSTYYADSVKGRFTISRDNAKNTVYLQMNSLKPEDTAVYYCAAKQAYSSTYVWPIFDYWGQGTQVTVSS | low polyreactivity
QVQLVESGGGLVQAGGSLRLSCAASGRTLGWYAMGWYRQAPGKERELVATISITGGSTYYADSVKGRFTISRDNAKNTVYLQMNSLKPEDTAVYYCAARHGSRRRYYYWGQGTQVTVSS | high polyreactivity
QVQLVESGGGLVQAGGSLRLSCAASGRTLHAYTMGWYRQAPGKERELVAAITRGGGNTYYADSVKGRFTISRDNAKNTVYLQMNSLKPEDTAVYYCAKDYGYQGHTRTLYWAYLEYDYWGQGTQVTVSS | low polyreactivity
QVQLVESGGGLVQAGGSLRLSCAASGRTLHYYAMGWYRQAPGKERELVAAISRTGSTDYADSVKGRFTISRDNAKNTVYLQMNSLKPEDTAVYYCAAYYRYRSGRYYYWGQGTQVTVSS | high polyreactivity
QVQLVESGGGLVQAGGSLRLSCAASGRTLIYNAMGWYRQAPGKERELVAAITGGGGRTYYADSVKGRFTISRDNAQNTVYLQMNSLKPEDTAVYYCAAGETFEMNYWGQGTQVTVSS | low polyreactivity
QVQLVESGGGLVQAGGSLRLSCAASGRTLKWYAMGWDRQAPGKERELVAAISWSGGSTYYADSVKGRFTISRDNAKNTVYLQMNSLKPEDTSVYYCAVAVTSYSSKKLYYWGQGTQVTVSS | low polyreactivity
QVQLVESGGGLVQAGGSLRLSCAASGRTLKYNAMGWYRQAPGKERELVAAISYSGSSTYYADSVNGRFTISRDKAKHTVYLQMNSLKPEDTEVYYCNTARPTAAYDYWGQGTQVTVSS | low polyreactivity
QVQLVESGGGLVQAGGSLRLSCAASGRTLLYYAMGWYRQAPGKERELVAAISRSGGSTSYADSVKGRFTISRDNAKNTVYLQMNSLKPEDTAVYYCNAPRYYYWGQGTQVTVSS | high polyreactivity
QVQLVESGGGLVQAGGSLRLSCAASGRTLPGYVMGWYRQEPGKERELVSTISSGDRTNYADSVKGRFTISRDNAKNTVYLQMNSLKPEETAVYYCAAPYVASGYYIWSPWLYDSWGQGTQVTVSS | low polyreactivity
QVQLVESGGGLVQAGGSLRLSCAASGRTLPVYAMGWYRQAPGKERELVAAITYSGGSTSYADYVKGRFTISRDNAKNTVYLQMNTLKPDDTAVYYCAAGYRYSEYYYWGQGTQVTVSS | low polyreactivity
QVQLVESGGGLVQAGGSLRLSCAASGRTLQGYAMGWYRQAPGKERELVAAISRGGGSTYADSVKGRFTISRDNAKNTVYLQMNSLKPEDTAVYYCAAVRGIYGGHYFRYEYWGQGTQVTVSS | high polyreactivity
QVQLVESGGGLVQAGGSLRLSCAASGRTLQRNAMGWYRQAPGKERELVADISWSGASTYYADSVKGRFTISRDNAKNTVYLQMNSLKPEDTAVYYCAATYIDRGNIYDYWGQGTQVTVSS | high polyreactivity
QVQLVESGGGLVQAGGSLRLSCAASGRTLQWNAMGWYRQAPGKERELVATISSGGSTKYADSVKGRFTISRDNAKNTVYLQMNSLKPEDTAVYYCNAQPFGMYYHRYYYWGQGTQVTVSS | low polyreactivity
QVQLVESGGGLVQAGGSLRLSCAASGRTLRKYAMGWYRQAPGKERELVAAISSSGGNTYYADSVKGRFTISRDNAKNTVYLQMNSLKPEDTAVYYCAAGFYYPTARVGYYYWGQGTQVTVSS | high polyreactivity
